Measured values from US20180346592A1 (MOGAM INSTITUTE FOR BIOMEDICAL RESEARCH, published 2018).
Numbering of substitutions follows the chain as printed.

How the values were obtained:
[1] = biological target: T1, GPC3 on the surface of hepatic cancer cell lines (SK-Hep1-GPC3 transfectant, HepG2, Huh7, Hep3B, SNU398) (human, UniProt P51654 25-554); assay: FACS, SK-Hep1-GPC3 cells, 1 ug antibody; lower right panel
T1 construct: Species is not restated for the cells (hepatic cancer cell lines, or SK-Hep1 transfected with pCMV/GPC3); also called glypican 3
Experimental: After detaching SK-Hep1-GPC3 cells by adding a TrypLE Express solution thereto, the detached SK-Hep1-GPC3 cells were put into a 50 mL tube and centrifuged at room temperature and 2000 rpm for 3 minutes to remove a culture medium, followed by washing with PBS once. The resultant was suspended using a FACS buffer, transferred to a round bottom tube, and centrifuged at room temperature and 2000 rpm for 3 minutes. A supernatant was removed, and the resultant was suitably dissolved using the FACS buffer so as to have a concentration of 4×10⁵ ea/mL. Then, a candidate antibody (1 μg) was added thereto at 4° C., and in an […] control group, a human IgG (1m, Sigma) was added instead of the candidate antibody. After 1 hour, the resultant was washed with the FACS buffer two times, a goat anti-human IgG antibody and FITC conjugated were added thereto at an amount of 1 μL per sample and bound thereto at 4° C. for 30 minutes. After collecting cells by centrifugation at 2000 rpm for 3 minutes, the cells were re-suspended by adding a fixation buffer (500 μL), and measured using a FACS calibur (FIG. 5).

[2] = biological target: T1, GPC3 on the surface of hepatic cancer …; assay: FACS, HepG2 cells, 1 ug antibody; lower right panel

B1: clone GX206 (scFv, V domains shown)
VH: QLQLQESGPGLVKPSETLSLTCTVSGGSISSSSYYWGWIRQPPGKGLEWIGSIYYSGSTYYNPSLKSRVTISVDTSKNQFSLKLSSVTAADTAVYYCARLGDYGGNGYYFDYWGQGTLVTVSS
VL: QSVLTQPPSVSAASGQKVTVSCSGSSSNIGKNGVSWHQQLPGTAPKLLIYENNRRPSEIPDRFSGSKSGTSATLAITGLQTGDEADYYCGTWDSSLNAGVFGTGTKVTVLG
notes: scFv library clone tested as culture supernatant
With B1 the “Mean, FL2-H” value [1] was 14.9 and the “Mean, FL2-H” value [2] was 5.08.

B2: clone GX225 (scFv, V domains shown)
VH: QVQLVQSGAEVKKPGASVKVSCKASGYTFTSYYMHWVRQAPGQGLEWMGIINPSGGSTSYAQKFQGRVTMTRDTSTSTVYMELSSLRSEDTAVYYCARESGPSGGMDVWGQGTTVTVSS
VL: SYELTQPPSVSVSPGQTARITCSGDALPKQYAYWYQQKPGQAPVLVIYKDSERPSGIPERFSGSSSGTTVTLTISGVQAEDEADYYCSSYTSSSTRVVFGGGTKLTVLG
notes: as for B1
In the case of B2, the “Mean, FL2-H” value [1] is reported as 37.8 and the “Mean, FL2-H” value [2] is reported as 9.81.

B3: clone GX234 (scFv, V domains shown)
VH: QVQLVQSGAEVKKPGASVKVSCKASGYTFTSYGISWVRQAPGQGLEWMGWISAYNGNTNYAQKLQGRVTMTTDTSTSTAYMELRSLRSDDTAVYYCARVGLGDFWSGDYYYYYYGMDVWGQGTTVTVSS
VL: SSELTQDPAVSVALGQTVRITCQGDSLRSSYASWYHQKPGQAPVLVMYGKNNRPSGIPDRFSGSSSGNTASLTITGAQAEDEADYYCHSRDSTGSHPNWVFGGGTKLTVLG
notes: as for B1
B3 was tested, and the “Mean, FL2-H” value [1] was 62.9 and the “Mean, FL2-H” value [2] was 12.6.

B4: clone GX253 (scFv, V domains shown)
VH: EVQLVESGGGLVKPGGSLRLSCAASGFTFSDYYMSWIRQAPGKGLEWVSYISSSGTTIYYADSVKGRFTISRDNAKKSLYLQMNSLRAEDTAVYYCARVRDSSGFWGRGTLVTVSS
VL: QSVLTQPPSVSAAPGQKVTISCSGSSSNIGNNYVSWYQQLPGTAPKLLIYDNNKRPSGIPDRFSGSKSGTSATLGITGLQTGDEADYYCGTWDSSLSAWVVGGGTKLTVLG
notes: as for B1
For B4, the “Mean, FL2-H” value [1] was 13.7 and the “Mean, FL2-H” value [2] was 6.12.

B5: clone GX248 (scFv, V domains shown)
VH: QMQLVQSGAEVKKPGASVKVSCKASGGTFSSYAISWVRQAPGQGLEWMGGIIPIFGTANYAQKFQGRVTITADESTSTAYMELSSLRSEDTAVYYCARVRGTGPRGGTFDYWGQGTLVTVSS
VL: B4 VL with V101F
notes: as for B1
With B5 the “Mean, FL2-H” value [1] was 13.3 and the “Mean, FL2-H” value [2] was 5.71.

B6: clone GX118 (scFv, V domains shown)
VH: QLQLQESGPGLVKPSETLSLTCTVSGGSISSSSYYWGWIRQPPGKGLEWIGSIYYSGSTYYNPSLKSRVTISVDTSKNQFSLKLSSVTAADTAVYYCARLRSFADNYVWGSYASYYFDYWGRGTLVTVSS
VL: B4 VL with L4V, K17R, Y33F, Y37H, S94N, S97G, A98T, W99G, V101F
notes: as for B1
For B6, the “Mean, FL2-H” value [1] was 5.95.

B7: clone GX119 (scFv, V domains shown)
VH: EVQLVESGGGVVQPGRSLRLSCAASGFTFSSYGMHWVRQAPGKGLEWVAVIWYDGSNKYYADSVKGRFTISRDNSKNTLYLQMNSLRAEDTAVYYCARDRSWNYYGMDVWGQGTTVTVSS
VL: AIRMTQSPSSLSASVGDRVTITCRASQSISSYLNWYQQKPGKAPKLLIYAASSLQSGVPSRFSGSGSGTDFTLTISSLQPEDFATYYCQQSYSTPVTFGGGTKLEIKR
notes: as for B1
With B7 the “Mean, FL2-H” value [1] was 13.3 and the “Mean, FL2-H” value [2] was 5.62.

B8: clone GX099 (scFv, V domains shown)
VH: EVQLVESGAEVKKPGASVKVSCKASGYTFTSYYMHWVRQAPGQGLEWMGIINPSGGSTSYAQKFQGRVTMTRDTSTSTVYMELSSLRSEDTAVYYCARYSSSPAKIDYWGQGTLVTVSS
VL: QSVLTQPPSVSAAPGEKVIISCSGSSSNIGKYYVSWYQQLPGTAPKLLIYDNNKRPSGIPDRFSGSKSGTSATLGISGLQTGDEADYYCGTWDSSLNLVFGTGTKVTVLG
notes: as for B1
In the case of B8, the “Mean, FL2-H” value [1] is reported as 40.1 and the “Mean, FL2-H” value [2] is reported as 13.2.

B9: clone GX207 (scFv, V domains shown)
VH: EVQLVQSGAEVKKPGASVKVSCKASGYTFTSYGISWVRQAPGQGLEWMGWISAYNGNTNYAQKLQGRVTMTTDTSTSTAYMELRSLRSDDTAVYYCAREGIAAAGYYYGMDVWGQGTTVTVSS
VL: QSALTQPPSVSGSPGQSVTISCTGTSSDVGGYNRVSWYQQPPGTAPKLMIYEVSNRPSGVPDRFSGSKSGNTASLTISGLQAEDEADYYCSSYTSSTTYVFGTGTKVTVLG
notes: as for B1
In the case of B9, the “Mean, FL2-H” value [1] is reported as 9.91 and the “Mean, FL2-H” value [2] is reported as 5.
